The Human Domainome abundance scans (Beltran et al. 2025)
± gives the uncertainty stated by the source.

B1: POU domain, class 4, transcription factor 3, residues 185 to 256; numbered along this chain, Q15319 (parent)
chain: RELEAFAERFKQRRIKLGVTQADVGAALANLKIPGVGSLSQSTICRFESLTLSHNNMIALKPVLQAWLEEAE

Variants of: B1
Experiment: abundance fitness (aPCA) (normalised: wild type 0, dead -1); higher = more abundant; growth selection in yeast, the domain comes from the species named
Settings: Homo sapiens

Question: With A7D as the variant, how does the abundance fitness read?
Answer: -0.953 ± 0.22

Question: Which abundance fitness does the source give for A7I here?
Answer: -0.083 ± 0.2

Question: For A7N, which abundance fitness is on record?
Answer: -0.927 ± 0.27

Question: Which abundance fitness does the source give for A7W here?
Answer: -0.817 ± 0.049

Question: For A7C, which abundance fitness is on record?
Answer: -0.124 ± 0.055

Question: With L31F as the variant, how does the abundance fitness read?
Answer: -0.034 ± 0.14

Question: Which abundance fitness does the source give for L31Y here?
Answer: -0.228 ± 0.29

Question: Which abundance fitness does the source give for L31T here?
Answer: -0.094 ± 0.48

Question: For F6Y, which abundance fitness is on record?
Answer: -0.118 ± 0.26

Question: Which abundance fitness does the source give for F6L here?
Answer: -0.221 ± 0.25

Question: For F6C, which abundance fitness is on record?
Answer: -0.731 ± 0.25

Question: For L50W, which abundance fitness is on record?
Answer: -0.717 ± 0.21

Question: With K61N as the variant, how does the abundance fitness read?
Answer: -0.658 ± 0.092

Question: For K61T, which abundance fitness is on record?
Answer: -0.061 ± 0.058

Question: With K61L as the variant, how does the abundance fitness read?
Answer: -0.217 ± 0.044

Question: Which abundance fitness does the source give for K61H here?
Answer: -0.105 ± 0.062

Question: With S53G as the variant, how does the abundance fitness read?
Answer: -0.061 ± 0.046

Question: Which abundance fitness does the source give for S53R here?
Answer: -0.229 ± 0.054

Question: Which abundance fitness does the source give for S53H here?
Answer: -0.174 ± 0.12

Question: For S38A, which abundance fitness is on record?
Answer: -0.346 ± 0.23

Question: For S38H, which abundance fitness is on record?
Answer: -0.018 ± 0.036

Question: Which abundance fitness does the source give for S38I here?
Answer: -0.017 ± 0.042

Question: For S38Q, which abundance fitness is on record?
Answer: 0.029 ± 0.03

Question: For S38P, which abundance fitness is on record?
Answer: 0.055 ± 0.041

Question: Which abundance fitness does the source give for S38F here?
Answer: 0.057 ± 0.095

Question: For S38T, which abundance fitness is on record?
Answer: 0.017 ± 0.03

Question: With S49H as the variant, how does the abundance fitness read?
Answer: -0.033 ± 0.096

Question: Which abundance fitness does the source give for S49R here?
Answer: -0.136 ± 0.066

Question: Which abundance fitness does the source give for S49V here?
Answer: -0.718 ± 0.11

Question: With S49W as the variant, how does the abundance fitness read?
Answer: -0.884 ± 0.31

Question: For S49A, which abundance fitness is on record?
Answer: 0.016 ± 0.065

Question: Which abundance fitness does the source give for S49G here?
Answer: -0.138 ± 0.057

Question: For W67P, which abundance fitness is on record?
Answer: -0.618 ± 0.1

Question: For W67Y, which abundance fitness is on record?
Answer: -0.09 ± 0.087

Question: Which abundance fitness does the source give for W67I here?
Answer: -0.752 ± 0.17

Question: For W67S, which abundance fitness is on record?
Answer: -0.684 ± 0.14

Question: For F10G, which abundance fitness is on record?
Answer: -1.03 ± 0.068

Question: With F10W as the variant, how does the abundance fitness read?
Answer: -0.287 ± 0.09

Question: For F10L, which abundance fitness is on record?
Answer: -0.697 ± 0.27

Question: With K11T as the variant, how does the abundance fitness read?
Answer: -0.276 ± 0.097

Question: With K11P as the variant, how does the abundance fitness read?
Answer: -0.751 ± 0.37

Question: With K11I as the variant, how does the abundance fitness read?
Answer: -0.123 ± 0.055

Question: Which abundance fitness does the source give for K11L here?
Answer: -0.449 ± 0.037

Question: With A29K as the variant, how does the abundance fitness read?
Answer: 0.023 ± 0.056

Question: With A29C as the variant, how does the abundance fitness read?
Answer: 0.031 ± 0.085

Question: With A29W as the variant, how does the abundance fitness read?
Answer: -0.181 ± 0.074

Question: For A29M, which abundance fitness is on record?
Answer: -0.119 ± 0.14

Question: Which abundance fitness does the source give for A29G here?
Answer: -0.022 ± 0.077

Question: With A29L as the variant, how does the abundance fitness read?
Answer: -0.21 ± 0.059

Question: Which abundance fitness does the source give for A26H here?
Answer: -0.052 ± 0.058

Question: For A26L, which abundance fitness is on record?
Answer: -0.027 ± 0.025

Question: With A26V as the variant, how does the abundance fitness read?
Answer: -0.069 ± 0.026

Question: Which abundance fitness does the source give for A26S here?
Answer: -0.012 ± 0.025

Question: For A26M, which abundance fitness is on record?
Answer: -0.095 ± 0.035

Question: With A26F as the variant, how does the abundance fitness read?
Answer: -0.113 ± 0.046

Question: Which abundance fitness does the source give for V36S here?
Answer: -0.077 ± 0.059

Question: Which abundance fitness does the source give for V36H here?
Answer: -0.072 ± 0.093

Question: Which abundance fitness does the source give for V36N here?
Answer: -0.234 ± 0.32

Question: Which abundance fitness does the source give for V36A here?
Answer: -0.089 ± 0.1

Question: For V36G, which abundance fitness is on record?
Answer: -0.242 ± 0.2

Question: With V36M as the variant, how does the abundance fitness read?
Answer: 0.044 ± 0.1

Question: Which abundance fitness does the source give for V36Q here?
Answer: -0.261 ± 0.16

Question: For V36L, which abundance fitness is on record?
Answer: -0.011 ± 0.043

Question: With A22H as the variant, how does the abundance fitness read?
Answer: -0.107 ± 0.073

Question: Which abundance fitness does the source give for A22M here?
Answer: -0.179 ± 0.1

Question: Which abundance fitness does the source give for A22L here?
Answer: -0.265 ± 0.033

Question: For A22K, which abundance fitness is on record?
Answer: -0.263 ± 0.23

Question: Which abundance fitness does the source give for A22W here?
Answer: -0.329 ± 0.064

Question: Which abundance fitness does the source give for A22R here?
Answer: -0.087 ± 0.037

Question: With A22C as the variant, how does the abundance fitness read?
Answer: -0.264 ± 0.051

Question: With A22Y as the variant, how does the abundance fitness read?
Answer: -0.115 ± 0.052

Question: For L39D, which abundance fitness is on record?
Answer: -0.304 ± 0.16

Question: Which abundance fitness does the source give for L39P here?
Answer: 0.054 ± 0.3

Question: Which abundance fitness does the source give for K32T here?
Answer: -0.088 ± 0.051

Question: Which abundance fitness does the source give for K32D here?
Answer: -0.076 ± 0.048

Question: Which abundance fitness does the source give for K32P here?
Answer: -0.158 ± 0.044

Question: With K32V as the variant, how does the abundance fitness read?
Answer: -0.009 ± 0.031

Question: Which abundance fitness does the source give for K32L here?
Answer: -0.146 ± 0.03

Question: For K32Q, which abundance fitness is on record?
Answer: -0.175 ± 0.065

Question: For K32I, which abundance fitness is on record?
Answer: -0.049 ± 0.045

Question: For K32G, which abundance fitness is on record?
Answer: -0.169 ± 0.039

Question: Which abundance fitness does the source give for K32N here?
Answer: 0.004 ± 0.047

Question: With K32H as the variant, how does the abundance fitness read?
Answer: -0.113 ± 0.068
